Assay results taken from US20040170614A1.

Tests used:
Test in all cases: cell-based or functional assay
[1] = target: human-mouse hybrid CD40 (hmCD40) (human; mouse) (UniProt P25942)
[2] = target: hmCD40ΔT6 (human; mouse) (UniProt P25942)
[3] = target: mouse CD40 (mCD40) (mouse) (UniProt P27512)
Chain of UniProt P27512 (P27512 20-289): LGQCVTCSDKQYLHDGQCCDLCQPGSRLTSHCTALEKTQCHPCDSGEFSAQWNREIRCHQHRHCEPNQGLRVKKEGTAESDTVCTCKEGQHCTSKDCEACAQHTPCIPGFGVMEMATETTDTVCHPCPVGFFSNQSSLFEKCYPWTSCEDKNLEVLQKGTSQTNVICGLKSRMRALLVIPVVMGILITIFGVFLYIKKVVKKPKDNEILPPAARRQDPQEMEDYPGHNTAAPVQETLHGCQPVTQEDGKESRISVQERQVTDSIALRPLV

IgM secretion (Pfc), CH12.LX+hmCD40 cells [1] | IgM secretion (Pfc), CH12.T2-/-+hmCD40 cells [1] | IgM secretion (Pfc), CH12.LX+hmCD40ΔT6 cells [2] | IgM secretion (Pfc), CH12.T2-/-+hmCD40ΔT6 cells [2] | IgM secretion (Pfc), CH12.LX+hmCD40 cells [3] | IgM secretion (Pfc), CH12.LX+hmCD40ΔT6 cells [3] | IgM secretion (Pfc), CH12.T2-/-+hmCD40 cells [3] | IgM secretion (Pfc), CH12.T2-/-+hmCD40ΔT6 cells [3] | Substance
430000 Pfc | 376000 Pfc | 187000 Pfc | 34000 Pfc | – | – | – | – | anti-hCD40 mAb G28-5 (antibody)
– | – | – | – | 431000 Pfc | 378000 Pfc | 399000 Pfc | 340000 Pfc | anti-mCD40 mAb 1C10 (antibody)
